According to publication PMC10705891:

B1: H1 RNA aptamer (structured_RNA)
RNA: GCCACCAACGACAUUUUGUCAAUCUGUAGAAAAAAUCAGGGUUGAUAUAAAUAGUGCCCAU
B2: H2 RNA aptamer (structured_RNA)
RNA: GCCACCAACGACAUUACGCAUUGCUUCUAAAGGGUGUGCCGUUGAUAUAAAUAGUGCCCAU

Biological target: HopU1 (Pseudomonas syringae, UniProt Q88A91 1-264)
Assay: MST
Settings: protein: recombinant; tags: C-terminal His6 (pET22b NdeI/XhoI, Ni-NTA; tag position implied by vector)

| Binder | Kd [nM] |
| --- | --- |
| B1 | 6.71 ± 0.69 |
| B2 | 6.41 ± 0.48 |
